Values belong to the binder of their own block, whether it stands above or below them.
Assays:
[1] = target: T1, penicillin-binding protein 1B (PBP1B) (Escherichia coli, UniProt P02919 1-844); assay: cell-based or functional assay
T1 sequence (looked up): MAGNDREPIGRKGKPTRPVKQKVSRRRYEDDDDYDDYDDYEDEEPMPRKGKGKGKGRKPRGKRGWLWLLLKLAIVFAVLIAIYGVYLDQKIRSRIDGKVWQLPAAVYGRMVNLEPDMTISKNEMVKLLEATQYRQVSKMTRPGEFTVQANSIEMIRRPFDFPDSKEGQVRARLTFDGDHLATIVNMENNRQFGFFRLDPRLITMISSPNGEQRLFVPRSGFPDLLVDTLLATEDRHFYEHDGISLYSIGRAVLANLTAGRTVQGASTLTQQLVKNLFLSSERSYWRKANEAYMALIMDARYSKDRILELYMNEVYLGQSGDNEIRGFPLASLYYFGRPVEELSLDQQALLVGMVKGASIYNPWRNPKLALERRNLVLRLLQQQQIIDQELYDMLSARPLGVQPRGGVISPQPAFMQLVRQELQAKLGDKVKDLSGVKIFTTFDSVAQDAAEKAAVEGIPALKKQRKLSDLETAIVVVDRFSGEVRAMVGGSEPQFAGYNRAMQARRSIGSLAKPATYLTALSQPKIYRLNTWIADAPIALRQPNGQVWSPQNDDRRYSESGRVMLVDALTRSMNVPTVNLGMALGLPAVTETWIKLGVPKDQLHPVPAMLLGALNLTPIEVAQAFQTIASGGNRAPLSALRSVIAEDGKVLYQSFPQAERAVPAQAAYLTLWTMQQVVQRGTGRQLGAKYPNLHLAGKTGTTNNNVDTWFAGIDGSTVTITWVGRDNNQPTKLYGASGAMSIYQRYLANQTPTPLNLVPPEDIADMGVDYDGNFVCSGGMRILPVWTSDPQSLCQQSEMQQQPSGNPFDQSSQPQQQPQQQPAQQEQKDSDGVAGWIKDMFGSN

[2] = target: T2, penicillin-binding protein 1A (PBP1A) (Escherichia coli, UniProt P02918 1-850); assay: cell-based or functional assay
T2 sequence (looked up): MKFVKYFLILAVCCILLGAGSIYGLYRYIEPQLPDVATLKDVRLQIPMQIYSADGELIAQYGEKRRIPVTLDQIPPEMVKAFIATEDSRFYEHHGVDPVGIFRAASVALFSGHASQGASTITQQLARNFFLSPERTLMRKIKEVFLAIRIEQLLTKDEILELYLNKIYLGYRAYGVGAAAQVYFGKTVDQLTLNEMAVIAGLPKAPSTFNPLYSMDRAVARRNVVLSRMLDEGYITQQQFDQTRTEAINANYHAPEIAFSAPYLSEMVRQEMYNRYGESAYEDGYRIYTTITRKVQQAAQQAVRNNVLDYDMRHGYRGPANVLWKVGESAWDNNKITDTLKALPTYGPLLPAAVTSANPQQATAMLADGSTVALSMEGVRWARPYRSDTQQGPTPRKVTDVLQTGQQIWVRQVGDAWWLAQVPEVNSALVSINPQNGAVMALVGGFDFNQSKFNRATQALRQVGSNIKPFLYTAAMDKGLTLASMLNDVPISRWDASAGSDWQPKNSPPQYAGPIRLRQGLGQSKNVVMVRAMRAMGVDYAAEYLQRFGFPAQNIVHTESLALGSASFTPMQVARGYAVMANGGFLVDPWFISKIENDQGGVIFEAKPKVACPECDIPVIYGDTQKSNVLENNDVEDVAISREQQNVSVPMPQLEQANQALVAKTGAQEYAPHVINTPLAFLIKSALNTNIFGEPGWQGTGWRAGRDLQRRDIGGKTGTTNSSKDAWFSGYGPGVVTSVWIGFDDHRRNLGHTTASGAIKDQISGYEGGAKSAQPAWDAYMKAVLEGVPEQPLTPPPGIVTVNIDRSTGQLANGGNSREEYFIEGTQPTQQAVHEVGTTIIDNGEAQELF

GTase rate of PBP1B (consumption of fluorescent dansyl-lipid II), fold over PBP1B alone; 0.5 uM PBP1B, 2 uM purified DedD [1]: 2.6 fold
GTase rate of PBP1A (consumption of fluorescent dansyl-lipid II), fold over PBP1A alone; 0.5 uM PBP1A, 2 uM purified DedD [2]: 1.8 fold
B1: His-DedD (natural protein, Escherichia coli, UniProt P09549 1-220, looked up)
chain: MASKFQNRLVGTIVLVALGVIVLPGLLDGQKKHYQDEFAAIPLVPKAGDRDEPDMMPAATQALPTQPPEGAAEEVRAGDAAAPSLDPATIAANNTEFEPEPAPVAPPKPKPVEPPKPKVEAPPAPKPEPKPVVEEKAAPTGKAYVVQLGALKNADKVNEIVGKLRGAGYRVYTSPSTPVQGKITRILVGPDASKDKLKGSLGELKQLSGLSGVVMGYTPN

GTase rate of PBP1B (consumption of fluorescent dansyl-lipid II), fold over PBP1B alone; 0.5 uM PBP1B, 2 uM purified DamX [1]: 2 fold
B2: His-DamX (natural protein, Escherichia coli, UniProt P11557 1-428, looked up)
chain: MDEFKPEDELKPDPSDRRTGRSRQSSERSERTERGEPQINFDDIELDDTDDRRPTRAQKERNEEPEIEEEIDESEDETVDEERVERRPRKRKKAASKPASRQYMMMGVGILVLLLLIIGIGSALKAPSTTSSDQTASGEKSIDLAGNATDQANGVQPAPGTTSAENTQQDVSLPPISSTPTQGQTPVATDGQQRVEVQGDLNNALTQPQNQQQLNNVAVNSTLPTEPATVAPVRNGNASRDTAKTQTAERPSTTRPARQQAVIEPKKPQATVKTEPKPVAQTPKRTEPAAPVASTKAPAATSTPAPKETATTAPVQTASPAQTTATPAAGAKTAGNVGSLKSAPSSHYTLQLSSSSNYDNLNGWAKKENLKNYVVYETTRNGQPWYVLVSGVYASKEEAKKAVSTLPADVQAKNPWAKPLRQVQADLK

Source: paper PMC7642682, “SPOR Proteins Are Required for Functionality of Class A Penicillin-Binding Proteins in Escherichia coli” (mBio, 2020)
